Reference: the Human Domainome abundance scans (Beltran et al. 2025)
± gives the uncertainty stated by the source.

B1: Glucocorticoid receptor, residues 419 to 494; numbered along this chain, P04150 (parent)
chain: KLCLVCSDEASGCHYGVLTCGSCKVFFKRAVEGQHNYLCAGRNDCIIDKIRRKNCPACRYRKCLQAGMNLEARKTK

Variants of: B1
Experiment: abundance fitness (aPCA) (normalised: wild type 0, dead -1); higher = more abundant; growth selection in yeast, the domain comes from the species named
Details: Homo sapiens

Variant | abundance fitness
KLCLVCSDEASGCHYGVLTCGSCKVFFKRAVEGQHNYLCAGRNDCIIDKIRRKNYPACRYRKCLQAGMNLEARKTK [C55Y] | -0.66 ± 0.16
KLCLVCSDEASGCHYGVLTCGSCKVFFKRAVEGQHNYLCAGRNDCIIDKIRRKNDPACRYRKCLQAGMNLEARKTK [C55D] | -1.13 ± 0.33
KLCLVCSDEASGCHYGVLTCGSCKVFFKRAVEGQHNYLCAGRNDCIIDKIRRKNMPACRYRKCLQAGMNLEARKTK [C55M] | -1.16 ± 0.2
KLCLVCSDEASGCHYGVLTCGSCKVFFKRAVEGQHNYLCAGRNDCIIDKIRRKNHPACRYRKCLQAGMNLEARKTK [C55H] | -0.911 ± 0.44
KLCLVCSDEASGCHYGVLTCGSCKVFFKRAVEGQHNYLCAGRNDCIIDKIRRKNRPACRYRKCLQAGMNLEARKTK [C55R] | -0.929 ± 0.077
KLCLVCSDEASGCHYGVLTCGSCKVFFKRAVEGQHNYLCAGRNDCIIDKIRRKNKPACRYRKCLQAGMNLEARKTK [C55K] | -0.877 ± 0.21
KLCLVCSDEASGCHYGVLTCGSCKVFFKRAVEGQHNYLCAGRNDCIIDKIRRKNPPACRYRKCLQAGMNLEARKTK [C55P] | -0.757 ± 0.14
KLCLVCSDEASGCHYGVLTCGSCKVFFKRAVEGQHNYLCAGRNDCIIDKIRRKNSPACRYRKCLQAGMNLEARKTK [C55S] | -0.707 ± 0.098
KLCLVCSDEASGCHYGVLTCGSCKVFFKRAVEGQHNYLCAGRNDCIIDKIRRKNFPACRYRKCLQAGMNLEARKTK [C55F] | -1.02 ± 0.3
KLCLVCSDEASGCHYGVLTCGSCKVFFKRAVEGQHNYLCAGRNDCIIDKIRRKNWPACRYRKCLQAGMNLEARKTK [C55W] | -0.588 ± 0.059
KLCLVCSDEASGCHYGVLTCGSCKVFFKRAVEGQHNYLCAGRNDCIIDKIRRKNGPACRYRKCLQAGMNLEARKTK [C55G] | -0.814 ± 0.061
KLCLVCSDEASGCHYGVLTCGSCKVFFKRAVEGQHNYLCAGRNDCIIDKIRRKNTPACRYRKCLQAGMNLEARKTK [C55T] | -0.849 ± 0.11
KLCLVCSDEASGCHYGVLTCGSCKVFFKRAVEGQHNYLCAGRNDCIIDKIRRKNVPACRYRKCLQAGMNLEARKTK [C55V] | -0.739 ± 0.06
KLCLVCSDEASGCHYGVLTCGSCKVFFKRAVEGQHNYLCAGRNDCIIDKIRRKNIPACRYRKCLQAGMNLEARKTK [C55I] | -0.801 ± 0.32
KLCLVCSDEASGCHYGVLTCGSCKVFFKRAVEGQHNYLCAGRNDCIIDKIRRKNLPACRYRKCLQAGMNLEARKTK [C55L] | -1.1 ± 0.15
KLCLVCSDEASGCHYGVLTCGSCKVFFKRAVEGQHNYLCAGRNDCIIDKIRRKNQPACRYRKCLQAGMNLEARKTK [C55Q] | -0.838 ± 0.11
KLCLVCSDEASGCHYGVLTCGSCKVFFKRAVEGQHNYLCAGRNDCIIDKIRRVNCPACRYRKCLQAGMNLEARKTK [K53V] | -0.037 ± 0.035
KLCLVCSDEASGCHYGVLTCGSCKVFFKRAVEGQHNYLCAGRNDCIIDKIRRGNCPACRYRKCLQAGMNLEARKTK [K53G] | 0.039 ± 0.033
KLCLVCSDEASGCHYGVLTCGSCKVFFKRAVEGQHNYLCAGRNDCIIDKIRRPNCPACRYRKCLQAGMNLEARKTK [K53P] | -0.027 ± 0.046
KLCLVCSDEASGCHYGVLTCGSCKVFFKRAVEGQHNYLCAGRNDCIIDKIRRYNCPACRYRKCLQAGMNLEARKTK [K53Y] | -0.026 ± 0.066
KLCLVCSDEASGCHYGVLTCGSCKVFFKRAVEGQHNYLCAGRNDCIIDKIRRRNCPACRYRKCLQAGMNLEARKTK [K53R] | -0.015 ± 0.03
KLCLVCSDEASGCHYGVLTCGSCKVFFKRAVEGQHNYLCAGRNDCIIDKIRRLNCPACRYRKCLQAGMNLEARKTK [K53L] | -0.017 ± 0.034
KLCLVCSDEASGCHYGVLTCGSCKVFFKRAVEGQHNYLCAGRNDCIIDKIRRQNCPACRYRKCLQAGMNLEARKTK [K53Q] | 0.016 ± 0.043
KLCLVCSDEASGCHYGVLTCGSCKVFFKRAVEGQHNYLCAGRNDCIIDKIRRSNCPACRYRKCLQAGMNLEARKTK [K53S] | -0.009 ± 0.036

Variant | abundance fitness
KLCLVCSDEASGCHYGVLTCGSCKVFFKRAVEGQHNYLCAGRNDCIIDKIRRTNCPACRYRKCLQAGMNLEARKTK [K53T] | -0.024 ± 0.046
KLCLVCSDEASGCHYGVLTCGSCKVFFKRAVEGQHNYLCAGRNDCIIDKIRRHNCPACRYRKCLQAGMNLEARKTK [K53H] | -0.038 ± 0.079
KLCLVCSDEASGCHYGVLTCGSCKVFFKRAVEGQHNYLCAGRNDCIIDKIRRINCPACRYRKCLQAGMNLEARKTK [K53I] | -0.091 ± 0.076
KLCLVCSDEASGCHYGVLTCGSCKVFFKRAVEGQHNYLCAGRNDCIIDKIRRWNCPACRYRKCLQAGMNLEARKTK [K53W] | -0.075 ± 0.039
KLCLVCSDEASGCHYGVLTCGSCKVFFKRAVEGQHNYLCAGRNDCIIDKIRRMNCPACRYRKCLQAGMNLEARKTK [K53M] | 0.001 ± 0.044
KLCLVCSDEASGCHYGVLTCGSCKVFFKRAVEGQHNYLCAGRNDCIIDKIRRKNCPGCRYRKCLQAGMNLEARKTK [A57G] | -0.071 ± 0.03
KLCLVCSDEASGCHYGVLTCGSCKVFFKRAVEGQHNYLCAGRNDCIIDKIRRKNCPFCRYRKCLQAGMNLEARKTK [A57F] | -0.457 ± 0.12
KLCLVCSDEASGCHYGVLTCGSCKVFFKRAVEGQHNYLCAGRNDCIIDKIRRKNCPCCRYRKCLQAGMNLEARKTK [A57C] | -0.039 ± 0.06
KLCLVCSDEASGCHYGVLTCGSCKVFFKRAVEGQHNYLCAGRNDCIIDKIRRKNCPDCRYRKCLQAGMNLEARKTK [A57D] | -0.182 ± 0.067
KLCLVCSDEASGCHYGVLTCGSCKVFFKRAVEGQHNYLCAGRNDCIIDKIRRKNCPLCRYRKCLQAGMNLEARKTK [A57L] | -0.582 ± 0.048
KLCLVCSDEASGCHYGVLTCGSCKVFFKRAVEGQHNYLCAGRNDCIIDKIRRKNCPECRYRKCLQAGMNLEARKTK [A57E] | -0.146 ± 0.039
KLCLVCSDEASGCHYGVLTCGSCKVFFKRAVEGQHNYLCAGRNDCIIDKIRRKNCPKCRYRKCLQAGMNLEARKTK [A57K] | -0.06 ± 0.047
KLCLVCSDEASGCHYGVLTCGSCKVFFKRAVEGQHNYLCAGRNDCIIDKIRRKNCPICRYRKCLQAGMNLEARKTK [A57I] | -0.614 ± 0.14
KLCLVCSDEASGCHYGVLTCGSCKVFFKRAVEGQHNYLCAGRNDCIIDKIRRKNCRACRYRKCLQAGMNLEARKTK [P56R] | -0.076 ± 0.031
KLCLVCSDEASGCHYGVLTCGSCKVFFKRAVEGQHNYLCAGRNDCIIDKIRRKNCAACRYRKCLQAGMNLEARKTK [P56A] | 0 ± 0.032
KLCLVCSDEASGCHYGVLTCGSCKVFFKRAVEGQHNYLCAGRNDCIIDKIRRKNCQACRYRKCLQAGMNLEARKTK [P56Q] | -0.001 ± 0.045
KLCLVCSDEASGCHYGVLTCGSCKVFFKRAVEGQHNYLCAGRNDCIIDKIRRKNCLACRYRKCLQAGMNLEARKTK [P56L] | -0.047 ± 0.034
KLCLVCSDEASGCHYGVLTCGSCKVFFKRAVEGQHNYLCAGRNDCIIDKIRRKNCEACRYRKCLQAGMNLEARKTK [P56E] | 0.015 ± 0.037
KLCLVCSDEASGCHYGVLTCGSCKVFFKRAVEGQHNYLCAGRNDCIIDKIRRKNCFACRYRKCLQAGMNLEARKTK [P56F] | -0.003 ± 0.06
KLCLVCSDEASGCHYGVLTCGSCKVFFKRAVEGQHNYLCAGRNDCIIDKIRRKNCSACRYRKCLQAGMNLEARKTK [P56S] | -0.035 ± 0.038
KLCLVCSDEASGCHYGVLTCGSCKVFFKRAVEGQHNYLCAGRNDCIIDKIRRKNCIACRYRKCLQAGMNLEARKTK [P56I] | -0.19 ± 0.072
KLCLVCSDEASGCHYGVLTCGSCKVFFKRAVEGQHNYLCAGRNDCIIDKIRRKNCMACRYRKCLQAGMNLEARKTK [P56M] | -0.053 ± 0.041
KLCLVCSDEASGCHYGVLTCGSCKVFFKRAVEGQHNYLCAGRNDCIIDKIRRKNCKACRYRKCLQAGMNLEARKTK [P56K] | -0.108 ± 0.052
KLCLVCSDEASGCHYGVLTCGSCKVFFKRAVEGQHNYLCAGRNDCIIDKIRRKNCVACRYRKCLQAGMNLEARKTK [P56V] | -0.064 ± 0.032

Variant | abundance fitness
KLCLVCSDEASGCHYGVLTCGSCKVFFKRAVEGQHNYLCAGRNDCIIDKIRRKNCCACRYRKCLQAGMNLEARKTK [P56C] | 0.052 ± 0.05
KLCLVCSDEASGCHYGVLTCGSCKVFFKRAVEGQHNYLCAGRNDCIIDKIRRKNCTACRYRKCLQAGMNLEARKTK [P56T] | -0.06 ± 0.044
KLCLVCSDEASGCHYGVLTCGSCKVFFKRAVEGQHNYLCAGRNDCIIDKIRRKNCHACRYRKCLQAGMNLEARKTK [P56H] | -0.111 ± 0.062
KLCLVCSDEASGCHYGVLTCGSCKVFFKRAVEGQHNYLCAGRNDCIIDKIRRKNCNACRYRKCLQAGMNLEARKTK [P56N] | 0.013 ± 0.056
KLCLVCSDEASGCHYGVLTCGSCKVFFKRAVEGQHNYLCAGRNDCIIDKIRRKNCGACRYRKCLQAGMNLEARKTK [P56G] | -0.085 ± 0.031
KLCLVCSDEASGCHYGVLTCGSCKVFFKRAVEGQHNYLCAGRNDCIIDKIRRKFCPACRYRKCLQAGMNLEARKTK [N54F] | -0.061 ± 0.061
KLCLVCSDEASGCHYGVLTCGSCKVFFKRAVEGQHNYLCAGRNDCIIDKIRRKYCPACRYRKCLQAGMNLEARKTK [N54Y] | 0.014 ± 0.097
KLCLVCSDEASGCHYGVLTCGSCKVFFKRAVEGQHNYLCAGRNDCIIDKIRRKCCPACRYRKCLQAGMNLEARKTK [N54C] | -0.136 ± 0.062
KLCLVCSDEASGCHYGVLTCGSCKVFFKRAVEGQHNYLCAGRNDCIIDKIRRKECPACRYRKCLQAGMNLEARKTK [N54E] | -0.025 ± 0.044
KLCLVCSDEASGCHYGVLTCGSCKVFFKRAVEGQHNYLCAGRNDCIIDKIRRKPCPACRYRKCLQAGMNLEARKTK [N54P] | -0.25 ± 0.049
KLCLVCSDEASGCHYGVLTCGSCKVFFKRAVEGQHNYLCAGRNDCIIDKIRRKRCPACRYRKCLQAGMNLEARKTK [N54R] | -0.053 ± 0.032
KLCLVCSDEASGCHYGVLTCGSCKVFFKRAVEGQHNYLCAGRNDCIIDKIRRKSCPACRYRKCLQAGMNLEARKTK [N54S] | -0.081 ± 0.043
KLCLVCSDEASGCHYGVLTCGSCKVFFKRAVEGQHNYLCAGRNDCIIDKIRRKVCPACRYRKCLQAGMNLEARKTK [N54V] | -0.025 ± 0.035
KLCLVCSDEASGCHYGVLTCGSCKVFFKRAVEGQHNYLCAGRNDCIIDKIRRKKCPACRYRKCLQAGMNLEARKTK [N54K] | 0.049 ± 0.043
KLCLVCSDEASGCHYGVLTCGSCKVFFKRAVEGQHNYLCAGRNDCIIDKIRRKGCPACRYRKCLQAGMNLEARKTK [N54G] | -0.104 ± 0.036
KLCLVCSDEASGCHYGVLTCGSCKVFFKRAVEGQHNYLCAGRNDCIIDKIRRKICPACRYRKCLQAGMNLEARKTK [N54I] | 0.014 ± 0.094
KLCLVCSDEASGCHYGVLTCGSCKVFFKRAVEGQHNYLCAGRNDCIIDKIRRKACPACRYRKCLQAGMNLEARKTK [N54A] | 0.05 ± 0.037
KLCLVCSDEASGCHYGVLTCGSCKVFFKRAVEGQHNYLCAGRNDCIIDKIRRKTCPACRYRKCLQAGMNLEARKTK [N54T] | -0.005 ± 0.045
KLCLVCSDEASGCHYGVLTCGSCKVFFKRAVEGQHNYLCAGRNDCIIDKIRRKQCPACRYRKCLQAGMNLEARKTK [N54Q] | -0.006 ± 0.042
KLCLVCSDEASGCHYGVLTCGSCKVFFKRAVEGQHNYLCAGRNDCIIDKIRRKHCPACRYRKCLQAGMNLEARKTK [N54H] | 0.011 ± 0.067
KLCLVCSDEASGCHYGVLTCGSCKVFFKRAVEGQHNYLCAGRNDCIIDKIRRKDCPACRYRKCLQAGMNLEARKTK [N54D] | -0.015 ± 0.061
KLCLVCSDEASGCHYGVLTCGSCKVFFKRAVEGQHNYLCAGRNDCIIDKIRRKMCPACRYRKCLQAGMNLEARKTK [N54M] | -0.064 ± 0.049
KLCLVCSDEASGCHYGVLTCGSCKVFFKRAVEGQHNYLCAGRNDCIIDKIRRKLCPACRYRKCLQAGMNLEARKTK [N54L] | -0.021 ± 0.034
KLCLVCSDEASGCHYGVLTCGSCKVFFKRAVEGQHNYLCAGRNDCIIDKIRRKWCPACRYRKCLQAGMNLEARKTK [N54W] | -0.064 ± 0.04
